Measurements reported in the supplement of paper PMC9170038.

Tested on: MS2 coat protein
Assay: apparent KD of MS2 coat protein; designed switch direction (-1 OFF switch, 1 ON switch): -1; higher = weaker reporter binding
In short: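 Designed RNA switches sharing common flanks were transcribed on Illumina chips by stalled E. coli RNA polymerase. They were titrated with SNAP-549-labelled MS2 coat protein, from 0.7 or 1.5 nM doubling to 3 µM, in Tris-HCl pH 7.5 buffer with KCl, MgCl2, BSA, DTT, tRNA and Tween-20. Titrations ran without input, with 200 uM small-molecule ligand, or with an oligonucleotide input. The apparent KD of each design is the median over its clusters, after curve-fitting of normalised cluster fluorescence.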

[1] = input ligand: microRNA oligo, concentration not stated
[2] = Eterna round: R95, input ligand: microRNA oligo, concentration not stated
[3] = Eterna round: R95, input ligand: FMN 200 uM
[4] = Eterna round: R95, input ligand: none

Row | Sequence | apparent KD of MS2 coat protein (input ligand: FMN 200 uM) | apparent KD of MS2 coat protein [1] | apparent KD of MS2 coat protein (input ligand: none) | apparent KD of MS2 coat protein [2] | apparent KD of MS2 coat protein [3] | apparent KD of MS2 coat protein [4]
1 | GGGAGGAGUGUAGGAUAUCCGACAAUCCUGUCAGGAGAAGGGCACCCUACUUGAGGAUCACCCAAGUCUCCGGGUGCUCAAGAA [Mutated MS2 EX1.15] (Eterna round: R96, puzzle: Exclusion NG 1) | 9.33 nM | 8.22 nM | 13.2 nM |  |  | 
2 | GGGAGUGAAGGAUAUACAUGAGGAUCACCCAUGUGGGAGGAGAGAGGUGAGGAGGCUGGUAGAAGGUCAGGAUG [JR_Exclusion3_Sub006] (puzzle: Exclusion 3) |  |  |  | 48.3 nM |  | 
3 | GGGCUCGGAGGAUAUACAAUCUCGGGCUGAAAGGCUCGGGUACAUGAGGAUCACCCAUGUAGAAGGUCGGGCUC [-30.2, -27.6 kcal A 24%, 4bis,4] (Eterna round: R97, puzzle: Exclusion 2) | 26 nM |  | 15.9 nM |  |  | 
4 | GGGCUGCGACACAGCCAAACAAAACAUGAGGAUCACCCAUGUCAGGAUAUACCGAUGCAGCAUCUGUAGAAGGGACAGAUCCAA [Lalaon] (Eterna round: R96, puzzle: Exclusion NG 3) | 151 nM | 68.8 nM | 79.7 nM |  |  | 
5 | GGGCUGUCAGGAUAUACAUGAGGAUCACCCAUGUCGAGCUAUGAUAGGGCAAGAGUAGGUAGAAGGGACGAGAG [JR_Exclu3_Sub043] (puzzle: Exclusion 3) |  |  |  | 32.6 nM | 43.7 nM | 32.7 nM
6 | GGGCUGUCAGGAUAUGGGCCCGGGCCCGAAAGGGUUUGGGCCCAGAAGGGACAUGAGGAUCACCCAUGUGGCCC [-43.8, -42.8 kcal, A 20%, 5b-0] (Eterna round: R97, puzzle: Exclusion 4) | 34.2 nM |  | 34.5 nM |  |  | 
7 | GGGUAGUGAGGAUAUCGUUGUUAGGAGGAGAAGGUAGGAGGCGAGAAGGCACAUGAGGAUCACCCAUGUAUGAG [JR_Exclu4_Sub064] (puzzle: Exclusion 4) |  |  |  | 26.9 nM |  | 
8 | GGGUCACAUGAGGAUCACCCAUGUGAGGAUAUGAUACUAUGUACUUCGGUACAUAGUAUCAGAAGGCACAUAAA [Ex1-3: 18] (puzzle: Exclusion 1) |  |  |  | 36.6 nM |  | 
9 | GGGUGUCCAGUGAGGAUAUCCAGCGCUCAGGCGCAGGAGAAGGCACAUGAGGAUCACCCAUGUAGCUGAAGAAA [Geenra] (puzzle: Brourd's mod of Exclusion 4) |  |  |  | 30.9 nM | 116 nM | 41.7 nM
10 | GGUACUCAAAGAGUACCAAUACGAACAUGAGGAUCACCCAUGUAGGAUAUGCUACUCAAAGAGUAGCAGAAGGAUAUGAACCCU [Far Half Aptamer v8] (Eterna round: R96, puzzle: Exclusion NG 3) | 33.1 nM | 16.8 nM | 26.3 nM |  |  | 
11 | GGUAGUAUGAGUAGUCCUCAUUGAAGAGAGUGGUAAGAAACAUGAGGAUCACCCAUGUAAGAACAAGCUUUUGCUCA [JR_Sv3TOV2_Sub005] (puzzle: Sensor v3, turn-off variant 2) |  |  |  | 15.9 nM | 191 nM | 266 nM
12 | GGUAUACAUGAGGAUCACCCAUGUCAGGAUAUGGAAACAUAUGCCGAAAGGCAUAUGGCCAGAAGGGACAAUAG [AK-MS2ROC-r4-exclusion1-5.1] (Eterna round: R97, puzzle: Exclusion 1) | 117 nM |  | 77.5 nM |  |  | 
13 | GGUCAAGAACAGCUCCGCGCUGUCCUUGACCGCUCAUUUACAUGAGGAUCACCCAUGUUUUUUGCUUGUCUUGUUUC [Estetexequ] (puzzle: Sensor v3, turn-off variant 2) |  |  |  | 98.7 nM | 21 nM | 23.8 nM
14 | GGUCAAGGACAGAUCCGCGCUGCCCUUGACCGCUCAUUUACAUGAGGAUCACCCAUGUUUUUUGCUUGUCUUGUUAC [Erbete] (puzzle: Sensor v3, turn-off variant 2) |  |  |  | 94 nM | 16.2 nM | 18.1 nM
15 | GGUCAGACGGUAGGAUAUCCAUAUCGAGUGACCCUUUCAUAACAUGAGGAUCACCCAUGUCGGUGGGAGAAGGGCUGUACGGCG [salish99_ExNG02_R04_002] (Eterna round: R96, puzzle: Exclusion NG 2) | 45.8 nM | 22.6 nM | 35.6 nM |  |  | 
16 | GGUCCUUCUGUCAGGAUAUCCAGUAUCAGACAGCAGGAGAAGGGACAUGAGGAUCACCCAUGUAAUAAGAAGAA [Onrean] (Eterna round: R97, puzzle: Brourd's mod of Exclusion 4) | 51.9 nM |  | 27.6 nM |  |  | 
17 | GGUCGACAUGAGGAUCACCCAUGUCAGGAUAUCGUCACUGGAGCUGCGGCUCCAGUGACGAGAAGGGAUAUAAU [E1/15-A3] (Eterna round: R97, puzzle: Exclusion 1) | 45.3 nM |  | 38.8 nM |  |  | 
18 | GGUCUACAUGAGGAUCACCCAUGUAAGGAUAUCGUCACUGGAGCUGCGGCUCCAGUGACGAGAAGGUACGUAAU [E1/12-A3] (Eterna round: R97, puzzle: Exclusion 1) | 33.7 nM |  | 32.4 nM |  |  | 
19 | GGUCUACAUGAGGAUCACCCAUGUAAGGAUAUCGUCACUGGAGCUGCGGCUCCAGUGACGAGAAGGUGCAUAAU [E1/11-A3] (Eterna round: R97, puzzle: Exclusion 1) | 39.4 nM |  | 30.8 nM |  |  | 
20 | GGUCUGCGAGGAUAUACAUGAGGAUCACCCAUGUGAGAGAUACUAGUGAGGUCGAUUGGUAGAAGGCGCGGACG [JL-ex3-2.03 salish99 mod] (puzzle: Exclusion 3) |  |  |  | 124 nM | 13.1 nM | 115 nM
21 | GGUCUGCGAGGAUAUACAUGAGGAUCACCCAUGUGCGAGAUACUAGUGAGGUCGAUUGGUAGAAGGCGCGGACG [JL-ex3-2.06 salish99 mod] (puzzle: Exclusion 3) |  |  |  | 86.4 nM | 182 nM | 88.8 nM
22 | GGUCUGCGAGGAUAUACAUGAGGAUCACCCAUGUGCGAGAUACUAGUGAGGUCGGUUGGUAGAAGGCGCGGACG [JL-ex3-2.07 salish99 mod] (puzzle: Exclusion 3) |  |  |  | 37.1 nM | 58.8 nM | 55.6 nM
23 | GGUGAAGCAGGAUAUGUAUCGAUAUACAUGAGGAUCACCCAUGUCAUGUACAAAUUGCAUAUAGAAGGGCUUCACC [Exclusion 5 (FMN-MS2 slide v.4)] (Eterna round: R97, puzzle: Exclusion 5) | 168 nM |  | 47.4 nM |  |  | 
